# Where a chain is given by its changes, count along the chain named.
# B1: Fab79D (Fab)
# heavy: EVQLVESGGGLVQPGGSLRLSCAASGFNISVYMMHWVRQAPGKGLEWVASIYPYSGYTYYADSVKGRFTISADTSKNTAYLQMNSLRAEDTAVYYCARYVYHALDYWGQGTLVTVSSASTKGPSVFPLAPSSKSTSGGTAALGCLVKDYFPEPVTVSWNSGALTSGVHTFPAVLQSSGLYSLSSVVTVPSSSLGTQTYICNVNHKPSNTKVDKKVEPKSC
# light: DIQMTQSPSSLSASVGDRVTITCRASQRGLRNVAVAWYQQKPGKAPKLLIYSASSLYSGVPSRFSGSRSGTDFTLTISSLQPEDFATYYCQQWAVHSLITFGQGTKVEIKRTVAAPSVFIFPPSDSQLKSGTASVVCLLNNFYPREAKVQWKVDNALQSGNSQESVTEQDSKDSTYSLSSTLTLSKADYEKHKVYACEVTHQGLSSPVTKSFNRGECGGSDYKDDDDK
# notes: Made in E. coli; also called last generation Fab; KIT79D (Fab)
# B2: IgG 79D (antibody, V domains shown)
# VH: EVQLVESGGGLVQPGGSLRLSCAASGFNISVYMMHWVRQAPGKGLEWVASIYPYSGYTYYADSVKGRFTISADTSKNTAYLQMNSLRAEDTAVYYCARYVYHALDYWGQGTLVTVSS
# VL: DIQMTQSPSSLSASVGDRVTITCRASQRGLRNVAVAWYQQKPGKAPKLLIYSASSLYSGVPSRFSGSRSGTDFTLTISSLQPEDFATYYCQQWAVHSLITFGQGTKVEIKR
# B3: Fab19 (Fab)
# VH: B2 VH with V31S, M33S
# light: DIQMTQSPSSLSASVGDRVTITCRASQSVSSAVAWYQQKPGKAPKLLIYSASSLYSGVPSRFSGSRSGTDFTLTISSLQPEDFATYYCQQWAVHSLITFGQGTKVEIKRTVAAPSVFIFPPSDSQLKSGTASVVCLLNNFYPREAKVQWKVDNALQSGNSQESVTEQDSKDSTYSLSSTLTLSKADYEKHKVYACEVTHQGLSSPVTKSFNRGECGGSDYKDDDDK
# notes: Human synthetic Fab from phage library F, made in E. coli; Light chain carries a C-terminal Flag-tag; also called parental synthetic Fab; anti-D4 Fab
# Legend:
# [1] = biological target: T1, Soluble KITD4-5 fragment (amino acids 308-514) (human, UniProt P10721 308-514, glycosylated Asn320 (partial deglycosylation with endoglycosidase F1)); experiment: SPR (Biacore T100, 25 C), KITD4-5 amine-coupled to a CM5 chip, Fab as analyte, long dissociation time, 1:1 Langmuir fit
# T1 construct: range 308-514; Expressed in Sf9 insect cells with an N-terminal His-tag and a TEV site; also called KITm-5; KITm-s
# [2] = biological target: Wild type KIT expressed on cells (UniProt P10721 26-976, limits assumed); experiment: cell-based or functional assay
# [3] = biological target: T1, Soluble KITD4-5 fragment (amino acids …); experiment: SPR (Biacore T100, 25 C), KITD4-5 amine-coupled to a CM5 chip, Fab as analyte 0.12-10 nM, 1:1 Langmuir fit
Binder,Kd [1],"concentration at which KIT autophosphorylation was inhibited (NIH-3T3 cells expressing wt KIT, SCF stimulation) [2]",Kd [3]
B1,0.0064 nM,–,–
B2,–,1 nM,–
B3,–,50 nM,0.63 nM

# Source: patent WO2015050959A1 (dated 2015)
